Test: soluble on expression in E. coli; label from the status in PepcDB or PDB records

Sequence	soluble on expression in E. coli
MSLSKELAVTPKQSLEAVVSYFRSAHKEPDSAVRAIHHQPASEGEFSEMPAAVDSRLRAALAKRGIERLYTHQADAFDQIQAGKHVVIVTPTASGKTLCYNLPVLNLLLRDEGARAMYLFPTKALAEDQLHEFQGAVEEMGSEIRAFTYDGDTPQDARRAIRSRANVVLTNPDMLHSGILPHHTRWARYFENLRYIVIDELHYYRGVYGSHLANLLRRLSRICEFYNSKPQFICCSATIANPKELAEALTGEPFELVERNGAPRGEKFFIFYNPPVVNRQLGIRRSYIAETRRMALKFIENNLQTLVFANNRLATEVLVTYLKDACDRGPIPSETVRGYRGGYLPRERREIEQSLRAGKIRAVVATNALELGIDIGSLDAVVMAGYPGTIASSWQRAGRAGRRQSTSAAVMVASSAPLDQYIVEHPDYFFGRSPEHAYINPENLEIFLAHLKCAAFELPLRDDEKFGRHDLAEICRYLEEAGFLHHSAAAWHWTSDTYPADATSLRSVTSDNFVVVDITGEAKVIAEVSFPTALTTLHEKAIYLHEARQFHVERFDYDQRKAYVKSVDCDYYTDAIDYTQVKVLEEMEGEPQNGARRLHGDVRVTRQIVGFKKIKFYTMENVGAGKLNMPEQEMHTTAFWLHFPAAFLARFAEFTPTEKQSGISGLGNALRTVASLLLMCDPRDLGVALSEEIAGGLEAFEPNLYLYDNYPGGIGQSGPLYRLAPQLLRQTAGLLAACACEAGCPSCVGPSGETGERGKLVAARILAELMGTAEQITAEGHHHHHH	soluble
MWRLTRKIGTRIHISNQLSPIFNKAIGTVPVFRFYSSSPEQKYRKKLLEEAQKQGFNSIEELKNHLKETIESKKREFNKIDPLKELEDYQQKTQMENNNSKHLMTKSRSPLDPSAPKVPFKTLDSFLDVGKLKDLSKQEVEFLWRARWAQKDNTLCAVIPVSVYDKMMANARNNPIFVLPLPRQVQSEDAKPNEEQGMELHYIQWQFVGPQTTHCMMTSLAEYKLHQEFARPHTTLQFHSDLVKDKGIVFMNGHVEPDTNVNVQDAQLLLLNVQRFYGAMGEETPVAKQRVQLLRDFSKASPGFTVEKLISLSQSMEN	soluble
GPGSMGCGDSKVRQGGPSRPPPPRGGPNSASTKVEGRANGPNEETSRVESKGSAPPEPEVNSTPVPTKPLGNGVDNSGAEKTNAPPTGSAPPAQNCSQQIELDDEGNALVLPKGEWVRTEGTPFYYSDAENLYFHPPSCQFYDPTNEMWYDPEQDEWYRDDDPAE	not soluble
MHLYSSDFPLMMDEKELYEKWMRTVEMLKAEGIIRSKEVERAFLKYPRYLSVEDKYKKYAHIDEPLPIPAGQTVSAPHMVAIMLEIANLKPGMNILEVGTGSGWNAALISEIVKTDVYTIERIPELVEFAKRNLERAGVKNVHVILGDGSKGFPPKAPYDVIIVTAGAPKIPEPLIEQLKIGGKLIIPVGSYHLWQELLEVRKTKDGIKIKNHGGVAFVPLIGEYGWKEHHHHHH	soluble
MHPTAAALIRTLGLAPHPEGGHYRRVYASTRQVLDDSGAPPRPALTAIRFLLCAGEASRWHRVDAEECWHWQQGAPLELLIFDEASGQLRREVLDAAERGDAMHVVPAGCWQAARSLGDFTLVGCTVSPGFVWEGFALLEDGSPLAAQLAALVAEGAAPEPPTLPLEHHHHHH	not soluble
MHNMFPALTKTLSLQGYKIINSQTGSAAWSCGRRWFSSDKDDHDDVVTRIKIAPIKRTNEPLDKKRARLIYQSRKRGILETDLLLSGFAAKYLKKMNEEELEEYDSLLNELDWDIYYWATKNFKTSPLPDKWANSKLLKQLQEFSENKEKEILSMPDLSKYQ	soluble
MRGSHHHHHHGSAHGLTDDMTMHFRMEGCVDGHKFVIEGNGNGNPFKGKQFINLCVIEGGPLPFSEDILSAAFDYGNRLFTEYPEGIVDYFKNSCPAGYTWHRSFRFEDGAVCICSADITVNVRENCIYHESTFYGVNFPADGPVMKKMTTNWEPSCEKIIPINSQKILKGDVSMYLLLKDGGRYRCQFDTIYKAKTEPKEMPDWHFIQHKLNREDRSDAKNQKWQLIEHAIASRSALP	soluble
TNRLSAYTSHRISKYNDRQTNTSLDINIGKFSSNTNYFFYHTDGWQNSPFEIKKKKGSGEPVLEETYKKTFRAQENQGVSQSLSYYATNNLSFSGNVQYNKRQIFTPTFSEKKAYDMDYRALTASLGTNYLFPNGLHTLSFDAVYDRFRFGYLYHDKDSSESLINNQGQTEQPTFFPGQLRNKNDQIRYTAEARGVFTLPYAQKLTGGLEYFREELISPYNLITDKADASTLSAYVQDEWKPLDWFNMTAGFRLVHHQEFGTRMTPKVSILAKYGPLNFRATYANGYKTPTLKELFARNELTTMGSHNLYLGNADLKPQMSDYYALGLEYNQGPISFSATVYDNELRNLISFMDIPTSPEHEAQGIKKTKQYANIGKARSRGLDVLCDASIGWGIKLGAGYSLVEAKNLQTDEWLEGAARHRANVHADWVHYWGQYRLGVSLFGRIQSERYYKDGNAPDYTLWRLATSHRFAHFRHIILDGTLGIDNLFDYVDDRPMGVNYATVTPGRTFFAQIAIRFNN	not soluble
MTDPSQMQAEELLSFLEEGGTLKMLHDVSADTIEHIYAVGYNFFQSGKIEQAAKVFQLLSMLDHYQARFFIGLGAARQELGEYLQAIDAYSYAALVDINDPRPPFHSAECHLKLEQLTEAESGFYSAKEMSAGKSQYADLHQRAGIMLEAVRNKRSNLEHHHHHH	soluble
GGFDGHTHSAGKINVGRFINPNDARKNPVPGLSGQVARTEKTRAQVGYNTPNTYAIGYRYAKLGYTTICEAAIPLLAARHTHEEFKEIPILDKMGLSLFGSNWQVMEYIRDKEPEKLAAYIAWGLKASRGYGVKIVNPGGGEAWGWGRNVSGLYDPVPNFDVTPAEILLGLAEANERLQLPHSIHVHCNNLGKPGNYATTIETMKLLEKVKPSRDRQALHVTHVQFNAYAGTSWRDFETGAPMVADYINGANHLTFDLGQVIFGPAVTMTADGPVEYANSRMLHEKWSNQDIELEDASGVVPLFYSPKSFVNAVQWAIGLELALLVKDPWKVMFTTDSPNGGSFVNYPEAFTYLMSAKRREEVISGFSKMALDRMVLPGIDRELDFYELAVMTRSTQSKMYSMPEKGNLKVGSDADIAIYDILPGQVDPSTEYAKVKKAFSAASYTLKSGEVVVKDG	not soluble
KHHHHHHIKPGALCVIDTPEGKGTGFFSGNDIVTAAHVVGNNTFVNVCYEGLMYEAKVRYMPEKDIAFITCPGDLHPTARLKLSKNPDYSCVTVMAYVNEDLVVSTAAAMVYGNTLSYAVRTQDGMSGAPVCDKYCRVLAVHQTNTGYTGGAVIIDPTDFHPV	soluble
MSLSGCNGVPTSYVSDPVYSQAFVVTSGAPLPMLLMASAIQWNEDYAVTAKHTPFLRNVVHEGLGDVVFFKHKASSVPHWRQYVPGEAVTAVGFNSFMMPMQGKGHALSSLVRLEGTPGSVFYSVHDGPITKGMSGGPVFADDGKVVGINVAIIPTDEINAGKRPDLVGKDRISVFMSFSEIDKEWRRYQYLLAHKAKPKAPAAVKGYVAVAAKEGHHHHHH	soluble
MKKLKMASCALVAGLMFSGLTPNAFAEDKISDVKSQINTQNDTLHKQQQERDELQKQMNDLNKTIQGLDKSVQENAAKLDETTKKVADTEQLIEKKNKDIAELQTKIAKREELLRKRLVALQEQPNTNVVTEVLVNSKNVADLVDRLTSVSKILESDEDIMKTQQEDQANVKKDVETVKTKQKELKEAQAQIETAKKELDAEKAKKATAVNDLSGKMDTVVTSMTSTESQLKDLEKQALQLQRIAEQEAQEKAAQEAAAQKQAEQAAKDAQAQPAQAAPAQPAAPANNGGQAQKEEPKKEEPKKEAPKKEDKKPEPTPGPAPAPGVIGKAQQYLGLPYVWGSASPSNGGFDCSGFISYVFGVGRQDVNGYWHSVSKVSSPQPGDLVFFQNTYKNGPSHIGIYVGNGQMIHAGDKGIAYSSLSSSYNQKHFLGYGRF	not soluble
MGSDKIHHHHHHMMVLTLKDFEQTYFYKTELIQLCKVYGLPTYGTKAELNKYLTLYLSGTPACDIKVNRKHTTSRNKTKITLETKILGEGFSFNQEARKLFAEYFGKEKFSFKKEMAVIKRQAEHNGETKMTVRDLLERYQEMVGQGNVLRETAEEATYQWNNFVRDFCKSSESQNYHQKLKVAAILWEKVKNSKNDKKFEASLVQKYEKNISNYMNK	not soluble
MAHHHHHHMKDKLRAMGHPAMDAADREDSHAGCFSDSVGMQTYSLNTSLGAMHIMSRLNNEMSFVEDTASGSFGVVKKGVLDLDRQCYAVKQTKRVISGEGDLQQRLQEVYTLSACSHPNVLRYFDGWVEDRAVFVRTEWLSDGSVADFDRPFSEALLRSVIHQIASALHWLLCHHITHRDVKPENILARKMEDGTYTFKLADFGLARPLFRDRPNTGEEFRGTNDDDGDRRYLSPEAFAISEFSQQKGEADVYALGASCVELMGGDPSLVRNGCYTGNFHIYSAELQNLVQWMTRLDPQERPDAFMVALLTVDPALKSTRGFARRMAAIEGLRASVAELEKKVAETNATEKEEGGA	soluble
MSTSADYKINQQQIVCVASFLSKEGKTEALIAALASLIPDTRREAGCIRYELNVSRDEPRRVTFVEKFVDIAAFDEHCAKDAIQHYFHQVMPELVESFHVETYHQVIA	soluble
MSLSLSHFRITRFQFARDRVIGDSQVRADDVNVAALELVSESGEVGLGFIQTLFNPLPDQQEIESVFEHEVWPSLKGNRAIALVHRVNRPRGGNQRAYSLPFHEAVQVALWDLAAKEAGLPLHVLLGSRRNRVKAYASGLDFHLDDDAFVSLFSHAASIGYSAFKIKVGHRDFDRDLRRLELLKTCVPAGSKVMIDPNEAWTSKEALTKLVAIREAGHDLLWVEDPILRHDHDGLRTLRHAVTWTQINSGEYLDLQGKRLLLEAHAADILNVHGQVTDVMRIGWLAAELGIPISIGNTFLEAGVHMAVALPEVEWLEYSFQNFDHLVEQPIEIRDGYAYAPDRPGHGLVLSEKARGEWSRPRRLARSELGAAPENPRLPAKEGHHHHHH	soluble
PTHIAIGIYFNPEIAPAPFISLIETNQCALAVRKYANEVGIPTVRDVKLARKLYKTHTKYSFVDFEHLDEVLRLIVWLEQVENTHLEHHHHHH	soluble
MTLPMQETRFSILLDELAAKQEAAIAPHLLADGTKVWIRKAGRHNARWRYALLGMVARYLKLGVLKPVPSLGGEPAIATESKRLYELRSAGIAVPELLAVRKNALMFGNLEGIPLDAQIRQEAEAGKSDAWLAGLEAIARVHKKRQFLSQAFARNMMSDGKNISFLDFEDDPSEVLTIAQCQARDWLCYIHSTALILKNGGLLEAAAEKWGGVLSDQPAEIQKLIAATVKPILPIRRLEHPRWGRDALRLAASISLISLADMPP	not soluble
MGSDKIHHHHHHMKKKLKIGISACVMGEPVRFDRGHKKSGFCMEQLAEFAEFKPVCPEMAIGLPVPRPTIRQIVRDNIITVSRPDGSGDVTQALKEFGAKAALNYQELAGFVFCAKSPSCGMERVKVYHHHGKGSESTGVGIFAEQVMKANPLLPCEENGRLNDPIIRENFTTRIFTYQKWLDLKAEGLTRHKLIQFHSAHKYLVMSHHVESYRELGRLLGRADIGLEEQSERYISGLMQALKHKASRRSHTNTLQHLQGYFKRQLDEHKRRELTQEIAAYREGLSPLLVPLTLIKHYLIEFPNEYLLQQAYLNPHPKELRLRYGY	not soluble

— the DeepSol protein solubility set
